Assay [1] concerns the target T1, human ST2L, full length, on cells (human, UniProt Q01638 19-556).
T1 sequence: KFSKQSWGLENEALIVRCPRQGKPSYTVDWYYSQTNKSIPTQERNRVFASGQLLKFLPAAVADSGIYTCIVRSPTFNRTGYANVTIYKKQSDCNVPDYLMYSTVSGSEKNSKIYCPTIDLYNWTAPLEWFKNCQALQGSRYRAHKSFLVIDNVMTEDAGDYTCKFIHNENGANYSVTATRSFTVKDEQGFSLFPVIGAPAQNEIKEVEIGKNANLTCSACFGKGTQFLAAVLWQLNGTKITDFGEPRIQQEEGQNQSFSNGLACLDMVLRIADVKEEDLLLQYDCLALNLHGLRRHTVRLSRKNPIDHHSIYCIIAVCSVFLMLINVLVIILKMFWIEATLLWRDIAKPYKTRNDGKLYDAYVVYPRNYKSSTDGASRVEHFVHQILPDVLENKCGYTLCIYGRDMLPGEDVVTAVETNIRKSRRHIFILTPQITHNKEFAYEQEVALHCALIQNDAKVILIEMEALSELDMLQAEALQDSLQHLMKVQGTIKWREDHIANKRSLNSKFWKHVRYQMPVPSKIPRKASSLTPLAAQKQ
Kind of assay: cell-based or functional assay.

The target in assay [2] is T2, human ST2L extracellular domain with C-terminal His6 tag (human, UniProt Q01638 19-328).
T2 construct: also called huST2L-ECD; ST2L-ECD
T2 sequence: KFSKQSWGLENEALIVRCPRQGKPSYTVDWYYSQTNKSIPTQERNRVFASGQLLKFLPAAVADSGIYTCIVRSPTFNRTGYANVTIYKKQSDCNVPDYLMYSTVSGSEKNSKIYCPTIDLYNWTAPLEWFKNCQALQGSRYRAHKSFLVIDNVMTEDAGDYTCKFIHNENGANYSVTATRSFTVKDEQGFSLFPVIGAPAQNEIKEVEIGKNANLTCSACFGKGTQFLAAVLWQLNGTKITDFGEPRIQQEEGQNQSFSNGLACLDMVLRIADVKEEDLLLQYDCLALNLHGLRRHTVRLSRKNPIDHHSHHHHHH
Kind of assay: SPR, mAb captured, ST2L-ECD in solution. On the technique in general: SPR reads the build-up and loss of mass on a sensor chip optically.

Assay [3] addresses T3, cynomolgus (Macaca fascicularis) ST2L extracellular domain with C-terminal His6 tag (Macaca fascicularis (cynomolgus), UniProt Q01638 19-321 (human entry)).
T3 construct: also called cyno ST2L-ECD; cynoST2L-ECD
T3 chain: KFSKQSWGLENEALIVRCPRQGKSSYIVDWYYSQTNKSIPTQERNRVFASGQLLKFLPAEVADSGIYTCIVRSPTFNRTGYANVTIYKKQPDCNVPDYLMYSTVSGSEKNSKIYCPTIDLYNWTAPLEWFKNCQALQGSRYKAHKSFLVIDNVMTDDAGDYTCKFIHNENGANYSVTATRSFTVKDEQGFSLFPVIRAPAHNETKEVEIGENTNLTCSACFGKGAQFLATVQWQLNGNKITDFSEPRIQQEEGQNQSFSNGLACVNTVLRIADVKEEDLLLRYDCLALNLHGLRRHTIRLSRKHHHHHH
Kind of assay: SPR, mAb captured, ST2L-ECD in solution.

The target in assay [4] is T2, human ST2L extracellular domain with …. Kind of assay: RLB ELISA: biotinylated IL-33 on coated huST2L-ECD, antibody titrated. The method, then:
96-well plate was coated with 50 μl of 4 μg/ml human ST2L-ECD (amino acids 19-328 of SEQ ID NO: 1) or 2 μg/ml cyno ST2L-ECD (amino acids 19-321 of SEQ ID NO: 2) having C-terminal His₆ tag in bicarbonate buffer at 4° C. for 16 hrs. All subsequent steps were performed at room temperature. Plate was blocked with 200 μl blocking buffer, and was washed 3 times with 300 μl of wash buffer containing PBS+0.05% Tween. 30 μl of various dilutions of anti-ST2L mAbs were added to the wells and incubated for 1 hour. For human receptor-ligand binding assay 20 μl of biotinylated human IL-33 (residues 112-270 of SEQ ID NO: 3) was added at 100 ng/ml final concentration and incubated for 30 minutes. For cyno receptor-ligand binding assay 20 μl of biotinylated cyno IL-33 (residues 112-269 of SEQ ID NO: 4) was added at 200 ng/ml final concentration and incubated for 30 minutes. The plate was washed 3 times with 300 μl of wash buffer. 50 μl of 0.2 μg/ml Streptavidin-HRP (Jackson Immunoresearch) was added and incubated for 30 min. The plate was washed 3 times with 300 μl of wash buffer containing PBS+0.05% Tween. 50 μl of TMB substrate (EMD Biosciences) was added to each well. Reaction was stopped by the addition of 100 μl of 0.2N Sulfuric Acid. OD450 were measured using Envision plate reader (Perkin Elmer).
Background: In an ELISA, binding on a coated surface is turned into a signal by an enzyme label.

This is an account of results in patent US20170066831A1 (Janssen / Centocor, published 2017).

B1: STLM124 (antibody, V domains shown)
VH: EVQLLESGGGLVQPGGSLRLSCAASGFTFSIYDMIWVRQAPGKGLEWVSTIKGEGGGTYYADSVKGRFTISRDNSKNTLYLQMNSLRAEDTAVYYCARDPWSTEGSFFVLDYWGQGTLVTVSS
VL: EIVLTQSPATLSLSPGERATLSCRASQSVDDDLAWYQQKPGQAPRLLIYDASNRATGIPARFSGSGSGTDFTLTISSLEPEDFAVYYCQQYITAPLTFGQGTKVEIK
notes: frameworks VH3-23 / Vk-L6
On to B1, for which the “RGA IC50” value in assay [1] was 0.87 µg/mL. Also, in assay [2], the affinity, expressed as Kd, was 0.046 nM; the koff (commonly the rate constant with which the complex falls apart) was found to be 0.000756 s⁻¹; the on-rate (kon) (commonly the rate constant with which the complex forms) was determined as 1.65e+07 M⁻¹ s⁻¹. For the same molecule, in assay [3], the Kd (in general, the concentration at which binding is half-saturated) worked out at 0.03 nM; the koff was determined as 0.00257 s⁻¹; the kon came out at 8.71e+07 M⁻¹ s⁻¹. Also, in assay [4], the IC50 – broadly, the concentration that gives 50% inhibition – was determined as 0.35 µg/mL.

B2: STLM207 (antibody, V domains shown)
VH: EVQLLESGGGLVQPGGSLRLSCAASGFTFSSYDMIWVRQAPGKGLEWVSTIRGEGGTTAYADSVKGRFTISRDNSKNTLYLQMNSLRAEDTAVYYCARDPWSTEGSFFVLDYWGQGTLVTVSS
VL: EIVLTQSPATLSLSPGERATLSCRASQSVDDDLAWYQQKPGQAPRLLIYDASNRATGIPARFSGSGSGTDFTLTISSLEPEDFAVYYCQQYITAPLTFGQGTKVEIK
notes: frameworks VH3-23 / Vk-L6
As to B2, the “RGA IC50” value in assay [1] came to 2.3 µg/mL. In assay [2], this molecule gave a Kd of 0.048 nM, a koff of 0.000395 s⁻¹ and an on-rate (kon) of 8.33e+06 M⁻¹ s⁻¹. In assay [3], this molecule returned a Kd of 0.021 nM, a koff of 0.00207 s⁻¹ and a kon of 1e+08 M⁻¹ s⁻¹. Moreover, the IC50 in assay [4] was determined as 0.36 µg/mL.

B3: STLM215 (antibody, V domains shown)
VH: EVQLLESGGGLVQPGGSLRLSCAASGFTFSSYDMFWVRQAPGKGLEWVSAIAGEGGRTYYADSVKGRFTISRDNSKNTLYLQMNSLRAEDTAVYYCARDPWSTEGSFFVLDYWGQGTLVTVSS
VL: EIVLTQSPATLSLSPGERATLSCRASQSVDDDLAWYQQKPGQAPRLLIYDASNRATGIPARFSGSGSGTDFTLTISSLEPEDFAVYYCQQYIGAPITFGQGTKVEIK
notes: frameworks VH3-23 / Vk-L6
For B3, in assay [1], the “RGA IC50” value is 1.3 µg/mL. In assay [2], this molecule returned a Kd of 0.025 nM, a koff of 0.000172 s⁻¹ and a kon of 6.91e+06 M⁻¹ s⁻¹. In assay [3], the Kd was 0.01 nM, the koff amounted to 0.000369 s⁻¹ and the kon is 3.54e+07 M⁻¹ s⁻¹. In assay [4], this molecule gave an IC50 of 0.29 µg/mL.

B4: STLM214 (antibody, V domains shown)
VH: EVQLLESGGGLVQPGGSLRLSCAASGFTFSSYDMFWVRQAPGKGLEWVSDIKGEGGRTAYADSVKGRFTISRDNSKNTLYLQMNSLRAEDTAVYYCARDPWSTEGSFFVLDYWGQGTLVTVSS
VL: EIVLTQSPATLSLSPGERATLSCRASQSVDDDLAWYQQKPGQAPRLLIYDASNRATGIPARFSGSGSGTDFTLTISSLEPEDFAVYYCQQYIDAPLTFGQGTKVEIK
notes: frameworks VH3-23 / Vk-L6
As to B4, in assay [1], the “RGA IC50” value was found to be 2.52 µg/mL. Moreover, in assay [2], the Kd worked out at 0.033 nM, the koff was determined as 0.000299 s⁻¹ and the kon worked out at 9.16e+06 M⁻¹ s⁻¹. In addition, in assay [3], the Kd was determined as 0.037 nM, the koff turned out to be 0.000264 s⁻¹ and the kon worked out at 7.2e+06 M⁻¹ s⁻¹. The IC50 in assay [4] was determined as 0.28 µg/mL.

B5: STLM216 (antibody, V domains shown)
VH: EVQLLESGGGLVQPGGSLRLSCAASGFTFSSYDMFWVRQAPGKGLEWVSDIKGEGGATNYADSVKGRFTISRDNSKNTLYLQMNSLRAEDTAVYYCARDPWSTEGSFFVLDYWGQGTLVTVSS
VL: EIVLTQSPATLSLSPGERATLSCRASQSVDDDLAWYQQKPGQAPRLLIYDASNRATGIPARFSGSGSGTDFTLTISSLEPEDFAVYYCQQYIGAPITFGQGTKVEIK
notes: frameworks VH3-23 / Vk-L6
Consider B5, for which, in assay [1], the “RGA IC50” value worked out at 1.86 µg/mL. In assay [2], the Kd was 0.016 nM, the koff stood at 0.000158 s⁻¹ and the kon turned out to be 9.63e+06 M⁻¹ s⁻¹. In assay [3], this molecule displayed a Kd of 0.003 nM, a koff of 0.000264 s⁻¹ and a kon of 7.89e+07 M⁻¹ s⁻¹. The molecule also displayed a half-inhibitory concentration (IC50) in assay [4] of 0.3 µg/mL.

B6: STLM209 (antibody, V domains shown)
VH: EVQLLESGGGLVQPGGSLRLSCAASGFTFSIYDMIWVRQAPGKGLEWVSTIRGEGGGTSYADSVKGRFTISRDNSKNTLYLQMNSLRAEDTAVYYCARDPWSTEGSFFVLDYWGQGTLVTVSS
VL: EIVLTQSPATLSLSPGERATLSCRASQSVDDDLAWYQQKPGQAPRLLIYDASNRATGIPARFSGSGSGTDFTLTISSLEPEDFAVYYCQQYITAPLTFGQGTKVEIK
notes: frameworks VH3-23 / Vk-L6
In the case of B6, the “RGA IC50” value in assay [1] is 0.97 µg/mL. In assay [2], this molecule showed a Kd of 0.026 nM, a koff of 0.00017 s⁻¹ and a kon of 6.59e+06 M⁻¹ s⁻¹. In assay [3], this molecule gave a Kd of 0.009 nM, a koff of 0.000311 s⁻¹ and a kon of 3.39e+07 M⁻¹ s⁻¹. The IC50 in assay [4] worked out at 0.32 µg/mL.

B7: STLM213 (antibody, V domains shown)
VH: EVQLLESGGGLVQPGGSLRLSCAASGFTFSFYDMIWVRQAPGKGLEWVSTIRGEGGDTNYADSVKGRFTISRDNSKNTLYLQMNSLRAEDTAVYYCARDPWSTEGSFFVLDYWGQGTLVTVSS
VL: EIVLTQSPATLSLSPGERATLSCRASQSVDDDLAWYQQKPGQAPRLLIYDASNRATGIPARFSGSGSGTDFTLTISSLEPEDFAVYYCQQYIDAPLTFGQGTKVEIK
notes: frameworks VH3-23 / Vk-L6
Turning to B7, in assay [1], the “RGA IC50” value was 0.49 µg/mL. Also, in assay [2], the Kd amounted to 0.014 nM, the koff is 0.000108 s⁻¹ and the kon is 7.54e+06 M⁻¹ s⁻¹. Besides, in assay [3], binding was characterised by a dissociation constant (Kd) of 0.008 nM, the koff was 0.000124 s⁻¹ and the kon was 1.64e+07 M⁻¹ s⁻¹. Moreover, the midpoint of inhibition in assay [4], the IC50, lay at 0.34 µg/mL.

B8: STLM217 (antibody, V domains shown)
VH: EVQLLESGGGLVQPGGSLRLSCAASGFTFSVYDMFWVRQAPGKGLEWVSDIKGEGGETSYADSVKGRFTISRDNSKNTLYLQMNSLRAEDTAVYYCARDPWSTEGSFFVLDYWGQGTLVTVSS
VL: EIVLTQSPATLSLSPGERATLSCRASQSVDDDLAWYQQKPGQAPRLLIYDASNRATGIPARFSGSGSGTDFTLTISSLEPEDFAVYYCQQYIGAPITFGQGTKVEIK
notes: frameworks VH3-23 / Vk-L6
Turning to B8, the “RGA IC50” value in assay [1] turned out to be 1.69 µg/mL. In assay [2], this molecule showed a Kd of 0.017 nM, a koff of 0.000126 s⁻¹ and a kon of 7.27e+06 M⁻¹ s⁻¹. In assay [3], the Kd came out at 0.004 nM, the koff was 0.000138 s⁻¹ and the kon was 3.81e+07 M⁻¹ s⁻¹. In addition, the midpoint of inhibition in assay [4], the IC50, lay at 0.49 µg/mL.

B9: STLM218 (antibody, V domains shown)
VH: EVQLLESGGGLVQPGGSLRLSCAASGFTFSVDSMFWVRQAPGKGLEWVSSIEGNGGATYYADSVKGRFTISRDNSKNTLYLQMNSLRAEDTAVYYCARDPWSTEGSFFVLDYWGQGTLVTVSS
VL: EIVLTQSPATLSLSPGERATLSCRASQSVDDDLAWYQQKPGQAPRLLIYDASNRATGIPARFSGSGSGTDFTLTISSLEPEDFAVYYCQQYIGAPITFGQGTKVEIK
notes: frameworks VH3-23 / Vk-L6
As for B9, the “RGA IC50” value in assay [1] is 1.33 µg/mL. In assay [2], the Kd was found to be 0.023 nM, the koff stood at 0.000224 s⁻¹ and the kon came to 9.89e+06 M⁻¹ s⁻¹. Further, in assay [3], binding was put at a Kd of 0.018 nM, the koff was 0.000265 s⁻¹ and the kon is 1.45e+07 M⁻¹ s⁻¹. The IC50 in assay [4] was 0.42 µg/mL.
